Tests used:
[1] = biological target: T1, ToH1 peptide of LptF (E. coli), SPEKPTV (E. coli); experiment: ELISA on ToH1 peptides (FIG.10A)
T1 construct: also called LptF ToH1 peptide

[2] = biological target: T2, ToH1 peptide of HyR3 (Candida albicans), TFEPPVV (Candida albicans); experiment: ELISA on ToH1 peptides (FIG.10A)
T2 construct: also called HyR3 ToH1 peptide

[3] = biological target: T3, ToH1 peptide of OmpA (Bacteroidales), SFELPTI (Bacteroidales); experiment: ELISA on ToH1 peptides (FIG.10A)
T3 construct: also called OmpA ToH1 peptide

[4] = biological target: T4, ToH1 peptide of BmpC (Borrelia burgdorferi), SYERPDI (Borrelia burgdorferi); experiment: ELISA on ToH1 peptides (FIG.10A)
T4 construct: also called BmpC ToH1 peptide

[5] = biological target: T5, ToH1 peptide of Asa1 (Enterococcus faecalis), […] (Enterococcus faecalis); experiment: ELISA on ToH1 peptides (FIG.10A)
[6] = biological target: T1, ToH1 peptide of LptF (E. coli), SPEKPTV; experiment: ELISA on ToH1 peptides (FIG.10B)
[7] = biological target: T2, ToH1 peptide of HyR3 (Candida …); experiment: ELISA on ToH1 peptides (FIG.10B)
[8] = biological target: T3, ToH1 peptide of OmpA (Bacteroidales), …; experiment: ELISA on ToH1 peptides (FIG.10B)
[9] = biological target: T4, ToH1 peptide of BmpC (Borrelia …); experiment: ELISA on ToH1 peptides (FIG.10B)
[10] = biological target: T5, ToH1 peptide of Asa1 (Enterococcus …); experiment: ELISA on ToH1 peptides (FIG.10B)
[11] = biological target: T6, E. coli FimH, wild type, on E. coli (BW25113) cells (E. coli, UniProt P08191 22-300); experiment: flow cytometry and immunofluorescence of rHMGB1 on E. coli BW25113
T6 construct: whole, on cells; also called WT FimH; ∆FimHWT
T6 sequence (P08191 22-300): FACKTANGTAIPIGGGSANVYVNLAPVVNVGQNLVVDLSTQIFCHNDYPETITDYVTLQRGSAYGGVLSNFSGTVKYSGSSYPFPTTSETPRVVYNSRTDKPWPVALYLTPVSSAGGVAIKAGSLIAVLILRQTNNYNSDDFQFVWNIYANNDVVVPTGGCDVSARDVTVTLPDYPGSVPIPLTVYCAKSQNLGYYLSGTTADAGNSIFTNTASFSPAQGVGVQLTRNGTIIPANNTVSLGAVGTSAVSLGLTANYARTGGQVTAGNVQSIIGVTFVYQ

Measured: binding result

B1: G6 scFv (scFv)
scFv: QVQLQQSGPGLVKPSQTLSLTCAISGDSVSSNSAAWNWIRQSPSRGLEWLGRTYYRSKWYNDYAVSVKSRITINPDTSKNQFSLQLNSVTPEDTAVYYCARRSTWGTFDYWGQGTLVTVSSGGGGSGGGGSGGGGSGGGGASDIVMTQTPDSLAVSLGERATINCKSSQSVLYSSNNKNYLAWYQQKPGQPPKLLIYWASTRESGVPDRFSGSGSGTDFTLTISSLQAEDVAVYYCQQYYALPLTFGGGTKLEIKGSHHHHHH
notes: also called antibody G6
binds: [1] | [2] | [3] | [4] | [5]

B2: F5 scFv (scFv)
scFv: EVQLVQSGPEVKKPGASVKVSCKASGFIFSNYGIGWVRQAPGQGLEWLGWISGYNGQTNYAQTVQGRVTMTADTSTTTAYMDLRNLRSDDTAIYYCARQSIPYYMDVWGKGTMVTVSSGGGGSGGGGSGGGGSGGGGASDIVMTQSPLSSPVTLGQPASISCRSSQSLVHSNGNTYLSWLHQRPGQPPRLLIYRISNRLSGVPDRFSGSGAGTDFTLKISRVEAEDVGVYYCMQAKQFPVTFGQGTRLEIKGSHHHHHH
notes: also called antibody F5
binds: [6] | [7] | [8] | [9] | [10]

B3: Recombinant human HMGB1 (rHMGB1) (ligand)
chain: MGKGDPKKPRGKMSSYAFFVQTCREEHKKKHPDASVNFSEFSKKCSERWKTMSAKEKGKFEDMAKADKARYEREMKTYIPPKGETKKKFKDPNAPKRPPSAFFLFCSEYRPKIKGEHPGLSIGDVAKKLGEMWNNTAADDKQPYEKKAAKLKEKYEKDIAAYRAKGKPDAAKKGVVKAEKSKKKKEEEEDEEDEEDEEEEEDEEDEDEEEDDDDE
notes: also called High mobility group box 1
binds: [11]

— patent EP4724480A2 (dated 2026)
